This note sets out measurements from patent US11161908.

The target in the experiment is human BAFF-R-GFP fusion protein expressed on the surface of mouse fibroblast (L) cells, clone D2C (human) (UniProt Q96RJ3). Description: flow cytometry, recombinant BAFF at 0.5 ug/10^6 D2C L cells, detected with anti-BAFF-PE, no antibody; unstained cells: 0.0217. A general note: In flow cytometry, cells or beads pass a laser one at a time.

Turning to “recombinant BAFF ligand (from UniProt Q9Y275 134-285)”, the percent of cells in the BAFF-PE gate stood at 59.6%.
